# Molecular target: Spike protein of the COVID-19 Spike-ACE2 Binding Assay Kit (Raybiotech) (SARS-CoV2) (UniProt P0DTC2)
substance,measurement,value
human SAT Nb-Fc control VH-Ab-8 (HAb8-S) (Fc fusion),IC50,0.079 nM

# Source: patent publication US20240251767A1
